Response data for one variant are collected here from paper PMC13627691 (2026).

The chains are these.
B1: ATG2A-mCherry (expressed as 3XFLAG-TEV-ATG2A-mCherry) [not stated (the printed accession is a human entry)] / GST-tagged LC3B [not stated (the printed accession is a human entry)] (parent complex)
chain 1: MSRWLWPWSNCVKERVCRYLLHHYLGHFFQEHLSLDQLSLDLYKGSVALRDIHLEIWSVNEVLESMESPLELVEGFVGSIEVAVPWAALLTDHCTVRVSGLQLTLQPRRGPAPGAADSQSWASCMTTSLQLAQECLRDGLPEPSEPPQPLEGLEMFAQTIETVLRRIKVTFLDTVVRVEHSPGDGERGVAVEVRVQRLEYCDEAVRDPSQAPPVDVHQPPAFLHKLLQLAGVRLHYEELPAQEEPPEPPLQIGSCSGYMELMVKLKQNEAFPGPKLEVAGQLGSLHLLLTPRQLQQLQELLSAVSLTDHEGLADKLNKSRPLGAEDLWLIEQDLNQQLQAGAVAEPLSPDPLTNPLLNLDNTDLFFSMAGLTSSVASALSELSLSDVDLASSVRSDMASRRLSAQAHPAGKMAPNPLLDTMRPDSLLKMTLGGVTLTLLQTSAPSSGPPDLATHFFTEFDATKDGPFGSRDFHHLRPRFQRACPCSHVRLTGTAVQLSWELRTGSRGRRTTSMEVHFGQLEVLECLWPRGTSEPEYTEILTFPGTLGSQASARPCAHLRHTQILRRVPKSRPRRSVACHCHSELALDLANFQADVELGALDRLAALLRLATVPAEPPAGLLTEPLPAMEQQTVFRLSAPRATLRLRFPIADLRPEPDPWAGQAVRAEQLRLELSEPQFRSELSSGPGPPVPTHLELTCSDLHGIYEDGGKPPVPCLRVSKALDPKSTGRKYFLPQVVVTVNPQSSSTQWEVAPEKGEELELSVESPCELREPEPSPFSSKRTMYETEEMVIPGDPEEMRTFQSRTLALSRCSLEVILPSVHIFLPSKEVYESIYNRINNDLLMWEPADLLPTPDPAAQPSGFPGPSGFWHDSFKMCKSAFKLANCFDLTPDSDSDDEDAHFFSVGASGGPQAAAPEAPSLHLQSTFSTLVTVLKGRITALCETKDEGGKRLEAVHGELVLDMEHGTLFSVSQYCGQPGLGYFCLEAEKATLYHRAAVDDYPLPSHLDLPSFAPPAQLAPTIYPSEEGVTERGASGRKGQGRGPHMLSTAVRIHLDPHKNVKEFLVTLRLHKATLRHYMALPEQSWHSQLLEFLDVLDDPVLGYLPPTVITILHTHLFSCSVDYRPLYLPVRVLITAETFTLSSNIIMDTSTFLLRFILDDSALYLSDKCEVETLDLRRDYVCVLDVDLLELVIKTWKGSTEGKLSQPLFELRCSNNVVHVHSCADSCALLVNLLQYVMSTGDLHPPPRPPSPTEIAGQKLSESPASLPSCPPVETALINQRDLADALLDTERSLRELAQPSGGHLPQASPISVYLFPGERSGAPPPSPPVGGPAGSLGSCSEEKEDEREEEGDGDTLDSDEFCILDAPGLGIPPRDGEPVVTQLHPGPIVVRDGYFSRPIGSTDLLRAPAHFPVPSTRVVLREVSLVWHLYGGRDFGPHPGHRARTGLSGPRSSPSRCSGPNRPQNSWRTQGGSGRQHHVLMEIQLSKVSFQHEVYPAEPATGPAAPSQELEERPLSRQVFIVQELEVRDRLASSQINKFLYLHTSERMPRRAHSNMLTIKALHVAPTTNLGGPECCLRVSLMPLRLNVDQDALFFLKDFFTSLVAGINPVVPGETSAEARPETRAQPSSPLEGQAEGVETTGSQEAPGGGHSPSPPDQQPIYFREFRFTSEVPIWLDYHGKHVTMDQVGTFAGLLIGLAQLNCSELKLKRLCCRHGLLGVDKVLGYALNEWLQDIRKNQLPGLLGGVGPMHSVVQLFQGFRDLLWLPIEQYRKDGRLMRGLQRGAASFGSSTASAALELSNRLVQAIQATAETVYDILSPAAPVSRSLQDKRSARRLRRGQQPADLREGVAKAYDTVREGILDTAQTICDVASRGHEQKGLTGAVGGVIRQLPPTVVKPLILATEATSSLLGGMRNQIVPDAHKDHALKWRSDSAQD
chain 2: not shown

This assay covers variants of B1. The assay can be described thus: bead-based binding assay (GSH beads, confocal imaging of mCherry fluorescence); 5 µM GST-tagged bait on Glutathione Sepharose 4B beads; 0.5 µM ATG2A-mCherry or ATG2A-LIR-mCherry; SEC150 buffer; N = 3; parent: 17; read off a plot.
Turning to chain 1 F1362A, chain 1 C1363A, chain 1 I1364A, chain 1 L1365A, the response was around 0.7%.
